According to patent US10544159B2, “Artemisinin derivatives, methods for their preparation and their use as antimalarial agents” (priority 2012, dated 2020):

B1: X-F11: II-E2-derived P450 variant (SEQ ID NO. 15), 6a-hydroxylating (protein)
chain: MTIKEMPQPKTFGELKNLPLLNTDKPVQALMKIADELGEIFKFEAPGRVTRYLSSQRLIKEACDESRFDKNLSQTLKFNRDFAGDGLATSWTHEKNWKKAHNILLPSFSQQAMKGYHAMMVDIAVQLVQKWERLNADEHIEVSEDMTRLTLDTIGLCGFNYRFNSFYRDQPHPFIISMVRALDESMNKLQRANPDDPVYDENKRQCQEDIKVMNDLVDKIIADRKARGEQSDDLLTQMLNGKDPETGEPLDDGNISYQIITFLIAGHETTSGLLSFALYFLVKNPHVLQKVAEEAARVLVDPVPSYKQVKQLKYVGMVLNEALRLWPTAPAFSLYAKEDTVLGGEYPLEKGDEVMVLIPQLHRDKTIWGDDVEEFRPERFENPSAIPQHAFKPFGNGQRACIGQQFALHEATLVLGMMLKHFDFEDHTNYELDIKETLTLKPEGFVVKAKSKKIPLGGIPSPSTEQSAKKVRKKAENAHNTPLLVLYGSNMGTAEGTARDLADIAMSKGFAPQVATLDSHAGNLPREGAVLIVTASYNGHPPDNAKQFVDWLDQASADEVKGVRYSVFGCGDKNWATTYQKVPAFIDETLAAKGAENIADRGEADASDDFEGTYEEWREHMWSDVAAYFNLDIENSEDNKSTLSLQFVDSAADMPLAKMHGAFSTNVVASKELQQPGSARSTRHLEIELPKEASYQEGDHLGVIPRNYEGIVNRVTARFGLDASQQIRLEAEEEKLAHLPLAKTVSVEELLQYVELQDPVTRTQLRAMAAKTVCPPHKVELEALLEKQAYKEQVLAKRLTMLELLEKYPACEMKFSEFIALLPSIRPRYYSISSSPRVDEKQASITVSVVSGEAWSGYGEYKGIASNYLAELQEGDTITCFISTPQSEFTLPKDPETPLIMVGPGTGVAPFRGFVQARKQLKEQGQSLGEAHLYFGCRSPHEDYLYQEELENAQSEGIITLHTAFSRMPNQPKTYVQHVMEQDGKKLIELLDQGAHFYICGDGSQMAPAVEATLMKSYADVHQVSEADARLWLQQLEEKGRYAKDVWAG
B2: III-B1: FL#62-derived P450 variant (SEQ ID NO. 12) (protein)
chain: MTIKEMPQPKTFGELKNLPLLNTDKPVQALMKIADELGEIFKFEAPGRVTRYLSSQRLIKEACDESRFDKNLSQALKFFRDFAGDGLATSWTHEKNWKKAHNILLPSFSQQAMKGYHAMMVDIAVQLVQKWERLNADEHIEVSEDMTRLTLDTIGLCGFNYRFNSFYRDQPHPFIISMVRTLDEVMNKLQRANPDDPVYDENKRQCQEDIKVMNDLVDKIIADRKARGEQSDDLLTQMLNGKDPETGEPLDDGNISYQIITFLIAGHETTSGLLSFALYFLVKNPHVLQKVAEEAARVLVDPVPSYKQVKQLKYVGMVLNEALRLWPTAPAFSLYAKEDTVLGGEYPLEKGDEVMVLIPQLHRDKTIWGDDVEEFRPERFENPSAIPQHAFKPFGNGQRACIGQQFALHEATLVLGMMLKHFDFEDHTNYELDIKETLTLKPEGFVVKAKSKKIPLGGIPSPSTEQSAKKVRKKAENAHNTPLLVLYGSNMGTAEGTARDLADIAMSKGFAPQVATLDSHAGNLPREGAVLIVTASYNGHPPDNAKQFVDWLDQASADEVKGVRYSVFGCGDKNWATTYQKVPAFIDETLAAKGAENIADRGEADASDDFEGTYEEWREHMWSDVAAYFNLDIENSEDNKSTLSLQFVDSAADMPLAKMHGAFSTNVVASKELQQPGSARSTRHLEIELPKEASYQEGDHLGVIPRNYEGIVNRVTARFGLDASQQIRLEAEEEKLAHLPLAKTVSVEELLQYVELQDPVTRTQLRAMAAKTVCPPHKVELEALLEKQAYKEQVLAKRLTMLELLEKYPACEMKFSEFIALLPSIRPRYYSISSSPRVDEKQASITVSVVSGEAWSGYGEYKGIASNYLAELQEGDTITCFISTPQSEFTLPKDPETPLIMVGPGTGVAPFRGFVQARKQLKEQGQSLGEAHLYFGCRSPHEDYLYQEELENAQSEGIITLHTAFSRMPNQPKTYVQHVMEQDGKKLIELLDQGAHFYICGDGSQMAPAVEATLMKSYADVHQVSEADARLWLQQLEEKGRYAKDVWAG
B3: V-H2: FL#62-derived P450 variant (SEQ ID NO. 10) (protein)
chain: MTIKEMPQPKTFGELKNLPLLNTDKPVQALMKIADELGEIFKFEAPGRVTRYLSSQRLIKEACDESRFDKNLSQALKFSRDIAGDGLATSWTHEKNWKKAHNILLPSFSQQAMKGYHAMMVDIAVQLVQKWERLNADEHIEVSEDMTRLTLDTIGLCGFNYRFNSFYRDQPHPFIISMVRTLDEVMNKLQRANPDDPVYDENKRQCQEDIKVMNDLVDKIIADRKARGEQSDDLLTQMLNGKDPETGEPLDDGNISYQIITFLIAGHETTSGLLSFALYFLVKNPHVLQKVAEEAARVLVDPVPSYKQVKQLKYVGMVLNEALRLWPTAPAFSLYAKEDTVLGGEYPLEKGDEVMVLIPQLHRDKTIWGDDVEEFRPERFENPSAIPQHAFKPFGNGQRACIGQQFALHEATLVLGMMLKHFDFEDHTNYELDIKETLTLKPEGFVVKAKSKKIPLGGIPSPSTEQSAKKVRKKAENAHNTPLLVLYGSNMGTAEGTARDLADIAMSKGFAPQVATLDSHAGNLPREGAVLIVTASYNGHPPDNAKQFVDWLDQASADEVKGVRYSVFGCGDKNWATTYQKVPAFIDETLAAKGAENIADRGEADASDDFEGTYEEWREHMWSDVAAYFNLDIENSEDNKSTLSLQFVDSAADMPLAKMHGAFSTNVVASKELQQPGSARSTRHLEIELPKEASYQEGDHLGVIPRNYEGIVNRVTARFGLDASQQIRLEAEEEKLAHLPLAKTVSVEELLQYVELQDPVTRTQLRAMAAKTVCPPHKVELEALLEKQAYKEQVLAKRLTMLELLEKYPACEMKFSEFIALLPSIRPRYYSISSSPRVDEKQASITVSVVSGEAWSGYGEYKGIASNYLAELQEGDTITCFISTPQSEFTLPKDPETPLIMVGPGTGVAPFRGFVQARKQLKEQGQSLGEAHLYFGCRSPHEDYLYQEELENAQSEGIITLHTAFSRMPNQPKTYVQHVMEQDGKKLIELLDQGAHFYICGDGSQMAPAVEATLMKSYADVHQVSEADARLWLQQLEEKGRYAKDVWAG
B4: II-H10: FL#62-derived P450 variant (SEQ ID NO. 11), 7(R)-hydroxylating (protein)
chain: MTIKEMPQPKTFGELKNLPLLNTDKPVQALMKIADELGEIFKFEAPGRVTRYLSSQRLIKEACDESRFDKNLSQALKFNRDFTGDGLFTSWTHEKNWKKAHNILLPSFSQQAMKGYHAMMVDIAVQLVQKWERLNADEHIEVSEDMTRLTLDTIGLCGFNYRFNSFYRDQPHPFIISMVRTFDETMNKLQRANPDDPVYDENKRQCQEDIKVMNDLVDKIIADRKARGEQSDDLLTQMLNGKDPETGEPLDDGNISYQIITFLIAGHETTSGLLSFALYFLVKNPHVLQKVAEEAARVLVDPVPSYKQVKQLKYVGMVLNEALRLWPTAPAFSLYAKEDTVLGGEYPLEKGDEVMVLIPQLHRDKTIWGDDVEEFRPERFENPSAIPQHAFKPFGNGQRACIGQQFALHEATLVLGMMLKHFDFEDHTNYELDIKETLTLKPEGFVVKAKSKKIPLGGIPSPSTEQSAKKVRKKAENAHNTPLLVLYGSNMGTAEGTARDLADIAMSKGFAPQVATLDSHAGNLPREGAVLIVTASYNGHPPDNAKQFVDWLDQASADEVKGVRYSVFGCGDKNWATTYQKVPAFIDETLAAKGAENIADRGEADASDDFEGTYEEWREHMWSDVAAYFNLDIENSEDNKSTLSLQFVDSAADMPLAKMHGAFSTNVVASKELQQPGSARSTRHLEIELPKEASYQEGDHLGVIPRNYEGIVNRVTARFGLDASQQIRLEAEEEKLAHLPLAKTVSVEELLQYVELQDPVTRTQLRAMAAKTVCPPHKVELEALLEKQAYKEQVLAKRLTMLELLEKYPACEMKFSEFIALLPSIRPRYYSISSSPRVDEKQASITVSVVSGEAWSGYGEYKGIASNYLAELQEGDTITCFISTPQSEFTLPKDPETPLIMVGPGTGVAPFRGFVQARKQLKEQGQSLGEAHLYFGCRSPHEDYLYQEELENAQSEGIITLHTAFSRMPNQPKTYVQHVMEQDGKKLIELLDQGAHFYICGDGSQMAPAVEATLMKSYADVHQVSEADARLWLQQLEEKGRYAKDVWAG

Legend:
[1] = Total turnovers and regio-/stereoselectivity of P450 variants in artemisinin hydroxylation (analytical scale); format: biochemical; conditions: for Product distribution (%) 4: share of 6a-hydroxy-ART (4); for Product distribution (%) 4 / Product distribution (%) 3 / Product distribution (%) 2: 0.5 mM artemisinin, 0.5-1 μM P450, 12 hours; for Product distribution (%) 3: share of 7(R)-hydroxy-ART (3); for Product distribution (%) 2: share of 7(S)-hydroxy-ART (2); for TTN: total turnovers on artemisinin, NADPH cofactor regeneration system, analytical scale
Protocol: Determination of Total Turnovers and Regio- and Stereoselectivity of the P450 Variants.
After 12 hours, 9-fluorenone was added to the mixtures as internal standard. The hydroxylation products were functionalized with benzoyl chloride followed by HPLC analysis. TTN values were calculated based on the total amount of hydroxylated products in the reactions as quantified based on the calibration curves generated using purified 2-4. The enzyme regio- and stereoselectivity was determined based on the area under the curve of the chromatographic peaks corresponding to the hydroxylation products 2, 3, and 4. Mean and standard deviation values reported for P450 variants in Table 1 were calculated from experiments performed at least in triplicate.

[2] = format: biochemical; conditions: 250 μM artemisinin, rates measured over initial 30 seconds
Protocol: Measurement of Product Formation Rates and Coupling Efficiency.
Initial product formation rates were measured from 1 mL-scale reactions containing 250 μM artemisinin, 0.1-0.5 μM purified P450, and 200 μM NADPH in potassium phosphate buffer (50 mM, pH 8.0) at room temperature. After 30 seconds, the samples were extracted with dichloromethane and subjected to benzoyl chloride derivatization followed by HPLC analysis as described above. Cofactor oxidation rate in the presence of artemisinin was measured by monitoring NADPH depletion at 340 nm (ε=6.22 mM^−1 cm^−1) using 0.1 μM purified P450, 250 μM artemisinin, and 200 μM NADPH. Coupling efficiency was calculated from the ratio between the initial product formation rate and the initial NADPH oxidation rate. Reported mean and standard deviation values were calculated from experiments performed at least in triplicate.

[3] = KD for artemisinin binding to P450 variants (heme spin-shift titration); conditions: binding of artemisinin to 3 μM purified P450, pH 8.0
Protocol: Determination of KD Values for Artemisinin Binding.
Binding experiments were performed using 3 μM purified P450 in potassium phosphate buffer (50 mM, pH 8.0) by titrating increasing amounts of artemisinin (5 μM to 1 mM) from an ethanol stock solution (50 mM). At each concentration, a difference spectrum from 350 to 500 nm was recorded and binding curves were generated by plotting the change in absorbance at 390 nm and 420 nm corresponding to the high-spin and low-spin state of the enzyme, respectively, against the artemisinin concentration. KD values were calculated using Sigma Plot via non-linear fitting of the experimental binding curves to an equation describing a standard 1:1 binding interaction. Reported mean and standard deviation values were calculated from experiments performed at least in triplicate.

Row | Molecule | regioselectivity toward 6a-hydroxylation ([1]; artemisinin as substrate) [%] | Product distribution (%) 4 [1] [%] | Product distribution (%) 3 [1] [%] | Product distribution (%) 2 [1] [%] | TTN [1] | Product formation rate [2] | Kd [3] [µM]
1 | B1 | 92 | 92 | 8 | 0 | 376 ± 19 | 56 ± 2 Mole product per mole P450 per minute | 234 ± 29
2 | B2 | – | 0 | 81 | 19 | 403 ± 17 | 72 ± 2 Mole product per mole P450 per minute | 38 ± 2
3 | B3 | – | 4 | 0 | 96 | 434 ± 21 | 41 ± 2 Mole product per mole P450 per minute | 45 ± 10
4 | B4 | – | 0 | 100 | 0 | 270 ± 8 | 32 ± 2 Mole product per mole P450 per minute | 61 ± 2
